Substrate: CC(C)=CCc1cc(CO)ccc1O
Assay: purified protein
Assay type: biochemical, Boreostereum vibrans
Details: NADPH 0.1 mM, 50 mM sodium phosphate pH 7.5, 28 °C, 30 min

B1: VibO (Boreostereum vibrans) (protein)
chain: MAAVENFEGYVEPELFERPGTSLPNKLGVMPQLTWPNVLNGTNCEKPAVPNYKPPSKVDVIIIGAGPVGLTTAACLLRQGITVRILDRSPHPLPVGRADGLQPRSMEVFDLLGLGEEVYHVGIRVEHTTVYKDGKQHIFAESHQAPGNEAHYTGLHACTQTEVEHLLIRDLIRHDILVERPCTATSYTFDEEADASVTHPITVNITNEATGAEEVVTARFLVGSDGAHSMIRKSLPIEFPGVKTDLHWGIVDAVINSDFPHRWTFGTVLNSEYGGCLIIPRERNMVRLYVQLRAEPGKAFDHSKWGPEEILVILNKVFAPYTLSYAEPVDWYTILTINERVATSFTYKDRIFLAGDSCHVHSAKGAFGMNTGVMDAHNLAWKLAMLCRGIAKPSLLASYDVERRENALRAVATSARYLRFVGNCTFQAIDGSGEVDKEADELVVPPGEDKDVFYFKKFVGQVGRFLIGLDVDYAENALNKLSPAVSRARAGYRASNPRVALSRSHSGRLYHSFGHLGQFTLLVFASNMGGALNAKLHALDSYLAGPSSFYHAYGGADTFKIVVVVRATPSQADQRVKTFPFLSKAGHTVYDDQLPLSHFGGDAHALYGVSHEEGAIVVVRPDSWIGTSSTISDARSLESYFDGFLFKSTEGSY
notes: full length, N-terminal His6 tag, expressed in E. coli BL21(DE3) (pET28a(+)); domains cover residues 1-653; dimer; copurified FAD
Km: 407 ± 83 µM | kcat: 0.111 ± 0.010 min^–1
